Two substances from US20240076398A1 can be followed below.

The target of assay [1] is human C5aR1 (complement component 5a receptor 1) (human) (UniProt P21730). The assay is described as follows: flow cytometry, Expi293 with transient human C5aR1, secondary antibody alone; mock 3,052.
Assay [2] has the same target. In words: flow cytometry, Expi293 with transient human C5aR1, 100 nM antibody; mock 3,722.

Chain of human C5aR1 (complement component 5a receptor 1) (human) (P21730 other isoform, or with tags, fused parts or gaps): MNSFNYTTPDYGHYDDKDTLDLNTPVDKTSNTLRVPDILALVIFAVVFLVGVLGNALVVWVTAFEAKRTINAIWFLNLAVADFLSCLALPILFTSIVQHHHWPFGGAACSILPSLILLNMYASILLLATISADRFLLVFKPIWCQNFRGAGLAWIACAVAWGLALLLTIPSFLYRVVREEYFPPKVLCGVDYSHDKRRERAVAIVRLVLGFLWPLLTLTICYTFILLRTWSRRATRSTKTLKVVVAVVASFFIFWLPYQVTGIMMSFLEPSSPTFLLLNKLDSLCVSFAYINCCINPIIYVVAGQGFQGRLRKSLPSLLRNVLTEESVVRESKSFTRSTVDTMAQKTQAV

With Anti-human-APC secondary antibody alone, the geometric mean fluorescent intensity in assay [1] is 5350.
Isotype control (Table 6) (antibody): the geometric mean fluorescent intensity in assay [2] was 6550.
